Assays:
[1] = test system: rat model of complete heart block; experiment: Effect of TGF-beta small molecule inhibitor on ventricular pacing with TBX18 mRNA; assay type: in vivo; details: A83-01 released by osmotic pump
Protocol: On Day 0, an osmotic pump releasing A83-01 (a TGF-beta inhibitor, Sigma Aldrich) was implanted into the rats. On Day 1, TBX18 mRNA was injected into the rats and a telemetry device was also implanted. Two doses of TBX18 mRNA were given to the rats: (i) a low dose of 100 μg TBX18 mRNA with 68.4 μl RNA-free phosphate-buffered saline (PBS), or (ii) a high dose of 300 μg TBX18 mRNA with 205 μl RNA-free PBS. A continuous telemetry recording of each rat's electrocardiogram (ECG) was made for 21 days after implantation of the telemetry device. In addition, 3-lead surface ECGs were performed on anesthetized animals on Days 7, 14, and 21 along with an isoproterenol challenge. The heart was harvested from each animal on Day 21.
The inventors then determined the effects of including a TGF-beta small molecule inhibitor on ventricular pacing with TBX18 mRNA (FIG. 16).

[2] = test system: neonatal rat ventricular myocytes (NRVMs); experiment: MEA light pacing of NRVMs transfected with ChR2 or CatCH mRNA; assay type: cell-based
Source text: For proper characterization of cells transfected with opsins, in addition to protein expression, another metric, function, can assist in properly optimizing the use of mRNA as an expression vector. Functional characterization can be performed with the use of a multi-electrode array (MEA). An MEA device uses electrodes to measure the field potential of nearby cells. Changes in field potential in cardiomyocytes can be detected in an amplitude and location-specific manner depending on the pickup electrode. The MEA device used, a Maestro from Axion Biosystems, allows the simultaneous measurement and light excitation of 16 electrodes per well in a 48 well plate. By employing primary ventricular cardiomyocytes from neonatal rats (NRVMs), functional expression of an opsin such as ChR2 can be measured as a synchronization event between electrical activity and pulsed light excitation from the LEDs embedded in the Axion Lumos device.
Pacing cardiac myocytes allows the screening of new drugs in a controlled environment, where the effect on beat frequency and waveforms can be measured against predicted values in the presence/absence of drugs. The inventors transfected neonatal rat ventricular myocytes (NRVMs) with mRNA encoding ChR2 and a modified ChR2 with a single amino acid substitution, CatCH. NRVMs were plated on MEA plates and the next day were transfected with ChR2 or CatCH mRNA at varying concentrations in triplicate wells using Viromer Red (Lipocalyx). […] Furthermore, when interrogated with excitation rates of 1 hz, 2 hz, and 3 hz, CatCH transfected cells were able to be driven at higher beat rates (3 hz) up to 72 hours post-transfection (FIG. 8) compared to ChR2 transfected cells. As the amount of mRNA and structure of the opsin are very similar, this difference can be inferred as due to enhanced opsin sensitivity—fewer opsins per cell were necessary to drive cardiac action potentials. When opsin expression was low, such as at timepoints several days following transfection, cardiac cells could only be driven at the slower rate of 1 hz successfully.

[3] = test system: neonatal rat ventricular cardiomyocytes (NRVMs); experiment: Capture of CatCh transfected NRVMs by 475 nm blue light stimulation; assay type: cell-based
Protocol: (§1) As a first step, the inventors expressed CatCh in neonatal rat ventricular cardiomyocytes (NRVMs) using IVT mRNA. Transfection conditions were varied using GFP mRNA. After identifying the optimal vehicle for transfection (Viromer Red), the expression of the protein of interest, CatCh-V5, was assessed after a 24 hour pulse of mRNA. […] CatCh-V5 localized to the membrane of transfected cells roughly 12 hours after transfection. […] The inventors next evaluated the function of transfected NRVMs. CatCh is an opsin, which induces a membrane depolarization in response to blue light stimulation. CatCh transfected NRVMs were exposed to a range of optical intensities (0 to 100% power) using 475 nm blue LED light. At each light intensity, the inventors scanned a range of stimulation durations (1 to 15 milliseconds). A train of monophasic square waves at a frequency of 2 Hz for a total of 30 seconds was utilized. The inventors compared the capture rate of CatCh versus Channelrhodopsin 2 (ChR2), a commonly used opsin. […] Cells were then subjected to blue light stimulation and analyzed for capture at different transfection amounts and timepoints.

[4] = test system: neonatal rat ventricular cardiomyocytes (NRVMs); experiment: CatCh-V5 expression time course by imaging and flow cytometry; assay type: cell-based; details: 24 hour pulse of mRNA; Viromer Red
Protocol: as §1

[5] = test system: Human iPS cell-derived cardiomyocytes; experiment: MEA functional testing of mRNA-expressed opsins with light excitation; assay type: cell-based
Protocol: Human iPS cell-derived cardiomyocytes were seeded into 48 well Axion MEA plates and cultured for 2 weeks until completely synchronized electrical activity (beat rate) was observed. Cells were transfected with ChR2 mRNA, JAWs mRNA, delivery vehicle only, or a mixture of both mRNAs using a modified PEI derivative (Lypocalyx Gmbh). Transfected cells were assayed using the Axion Maestro MEA and Lumos light excitation device at 6 hours and 24 hours post transfection. Assays were comprised of electrical readout (16 electrodes per well) with either no stimulus, blue light stimulus (drives firing in ChR2-transfected cells), orange light stimulus (inhibits firing in JAWs-transfected cells), or blue light impulse stimulus with a period of constant orange light.
As a preliminary step, the inventors determined the optimal amount of delivery vehicle to transfect cells for adequate function of the expressed mRNA, defined as complete control of beat rate with ChR2 and conversely complete inhibition of firing with JAWs. […] Delivery vehicle alone had no effect on native cell beat rates, thus it is likely that higher amounts of protein can be generated if opsin function is required more rapidly. […] Using 0.1 ul of delivery vehicle, all three wells (100%) were paced via light (FIG. 3C).
The inventors next tested expression and function of ChR2 and JAWS (inhibitory opsin) in iPS-derived cardiomyocytes. Here, 500 ng each of ChR2 and JAWS mRNA were delivered to iPS-derived cardiomyocytes in an MEA plate (FIG. 9). The next day, cells were paced using pulsed blue light stimulation (arrows). At the same time, orange light was used for several seconds (bars) to prevent cardiomyocytes from beating.

Cc1cccc(-c2nn(C(=S)Nc3ccccc3)cc2-c2ccnc3ccccc23)n1 [A83-01, reference compound]
effect on ventricular pacing / block [1]: reversed the block

B1: CatCH: mRNA encoding a modified ChR2 with a single amino acid substitution, CatCH (nucleic acid)
DNA: GGGAAATAAGAGAGAAAAGAAGAGTAAGAAGAAATATAAGAGCCACCATGGATTACGGCGGAGCCCTGTCTGCCGTGGGCAGAGAACTGCTGTTCGTGACCAACCCCGTGGTCGTGAACGGCAGCGTGCTGGTGCCTGAGGACCAGTGTTACTGCGCCGGCTGGATCGAGAGCAGAGGCACAAACGGCGCCCAGACCGCCTCTAACGTGCTGCAGTGGCTGGCCGCTGGCTTCAGCATCCTGCTGCTGATGTTCTACGCCTACCAGACCTGGAAGTCTACCTGCGGCTGGGAAGAGATCTACGTGTGCGCCATCGAGATGGTCAAAGTGATCCTGGAATTCTTCTTCGAATTCAAAAACCCCTCCATGCTGTACCTGGCCACCGGCCACAGAGTGCAGTGGCTGAGATACGCCGAGTGGCTGCTGACCTGCCCCGTGATCTGCATCCACCTGAGCAACCTGACCGGCCTGTCCAACGACTACAGCAGACGGACCATGGGCCTGCTGGTGTCCGACATCGGCACAATCGTGTGGGGCGCCACAAGCGCCATGGCCACAGGCTACGTGAAAGTGATCTTCTTCTGCCTGGGCCTGTGCTACGGCGCCAACACATTCTTCCACGCCGCCAAGGCCTACATCGAGGGCTACCACACAGTGCCCAAGGGCAGATGCAGACAGGTCGTGACAGGCATGGCCTGGCTGTTCTTCGTGTCCTGGGGCATGTTCCCCATCCTGTTCATCCTGGGCCCTGAGGGCTTCGGCGTGCTGTCTGTGTACGGCTCTACCGTGGGCCACACCATCATCGACCTGATGAGCAAGAACTGTTGGGGACTGCTGGGCCACTACCTGAGAGTGCTGATCCACGAGCACATCCTGATTCACGGCGACATCAGAAAGACCACCAAGCTGAACATCGGCGGCACCGAGATCGAGGTGGAAACCCTGGTGGAAGATGAGGCCGAGGCTGGCGCTGTGCCAGCCGCTGCTACAGGTAAGCCTATCCCTAACCCTCTCCTCGGTCTCGATTCTACGTGATAAGCTGCCTTCTGCGGGGCTTGCCTTCTGGCCATGCCCTTCTTCTCTCCCTTGCACCTGTACCTCTTGGTCTTTGAATAAAGCCTGAGTAGGAAGGC
modifications: mRNA transcribed from DNA
light sensitivity compared with ChR2 based on MEA measurements ([2]; 125 ng of CatCH versus 1000 ng of ChR2): much higher sensitivity than ChR2 | maximum beat rate comparison with ChR2 ([2]; 1 hz, 2 hz, 3 hz LED pulsing, time course): able to sustain higher frequencies | LED light intensity to which the opsin responds ([2]; 24 hours post transfection): 5% | light required for electrical response relative to ChR2 ([2]; 24 hours post-transfection): 15 times | time post-transfection up to which cells could be driven at 3 hz ([2]; LED pulsing, maximum intensity excitation light): up to 72 hours | beat rate at which cells were able to be driven ([2]; excitation rates of 1 hz, 2 hz, and 3 hz, up to 72 hours post-transfection): 3 hz | optimal RNA dose to achieve reliable pacing over time ([3]; 0.1, 1 and 10 ng/1000 cells tested): 1 ng/1,000 cells | capture rate versus Channelrhodopsin 2 (ChR2) ([3]; 475 nm blue LED, 0 to 100% power, 1 to 15 milliseconds, 2 Hz for 30 seconds): superior sensitivity | days post-transfection with highest capture rates at lowest stimulation thresholds ([3]; blue light stimulation): 1 to 3 days | time after transfection to membrane localization [4]: roughly 12 hours | time by which expression dropped off significantly [4]: ≤ 5 days | time of peak expression [4]: 24 h

B2: JAWS mRNA: mRNA encoding the inhibitory opsin JAWS, activated by constant orange or red light (nucleic acid)
chain: GGGAAATAAGAGAGAAAAGAAGAGTAAGAAGAAATATAAGAGCCACCATGACCGCCGTGTCTACCACAGCCACAACAGTGCTGCAGGCCACACAGAGCGACGTGCTGCAAGAGATCCAGAGCAACTTCCTGCTGAACAGCAGCATCTGGGTCAACATTGCCCTGGCCGGCGTTGTGATCCTGCTGTTTGTGGCCATGGGCCGCGATCTGGAAAGCCCTAGAGCCAAGCTGATCTGGGTCGCCACAATGCTGGTGCCCCTGGTGTCTATCAGCAGCTATGCCGGACTGGCCTCTGGCCTGACAGTGGGCTTTCTGCAAATGCCTCCTGGACACGCCCTGGCTGGACAAGAAGTTCTGTCTCCCTGGGGCAGATACCTGACCTGGACCTTCAGCACCCCTATGATTCTGCTGGCCCTGGGACTGCTGGCCGATACAGATATCGCCAGCCTGTTCACCGCCATCACCATGGACATCGGGATGTGTGTGACAGGCCTGGCCGCTGCTCTGATCACAAGCAGCCATCTGCTGAGATGGGTGTTCTACGGAATCAGCTGCGCCTTCTTCGTGGCCGTGCTGTATGTGCTGCTGGTGCAGTGGCCTGCCGATGCTGAAGCTGCCGGAACCTCTGAGATCTTCGGCACCCTGAGAATCCTGACCGTGGTGCTGTGGCTGGGCTACCCTATTCTGTTTGCCCTGGGCTCTGAAGGCGTGGCACTGCTGTCTGTGGGAGTGACAAGCTGGGGCTATAGCGGCCTGGACATCCTGGCCAAATACGTGTTCGCCTTTCTGCTCCTCAGATGGGTCGCCGCCAATGAGGGAACAGTGTCTGGCTCTGGCATGGGCATTGGATCTGGCGGAGCTGCCCCTGCTGATGATCCAGCTGCTGCCACCTATCCTTACGACGTGCCCGACTACGCCTGATGAGCTGCCTTCTGCGGGGCTTGCCTTCTGGCCATGCCCTTCTTCTCTCCCTTGCACCTGTACCTCTTGGTCTTTGAATAAAGCCTGAGTAGGAAGGCTCGCTTTCTTGCTGTCCAATTTCTATTAAAGGTTCCTTTGTTCCCTAAGTCCAACTACTAAACTGGGGGATATTATGAAGGGCCTTGAGCATCTGGATTCTGCCTAATAAAAAACATTTATTTTCATTGCGC
opsin function in dual transfection ([5]; 500 ng each of ChR2 and JAWS mRNA, next day, pulsed blue light and orange light): function of both opsins | inhibition of beating under continuously applied orange light ([5]; period of 10 seconds orange light): inhibited beating completely | time post-transfection at which complete capture (synchronization or complete inhibition) was observed ([5]; second highest and highest amounts of delivery vehicle): 24 h
